Assay: yeast display, Sf9 membrane polyspecificity reagent, FACS + sequencing; frameworks hold sequencing errors
How it was run: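 A nanobody's polyreactivity label depends on the gate it was sorted from. Yeast display cells were stained with 10% biotinylated, detergent-solubilized Sf9 membrane reagent for 1 hour at 4 °C, enriched on streptavidin microbeads and sorted by FACS. The low and high (top ~1%) gates were set on anti-HA fluorescence for expression and streptavidin fluorescence for reagent binding.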

Sequence	polyreactivity (PSR sort gate)
QVQLVESGGGLVQEGGSLRLSCAASGRTSGFNTMGWYRQAPRKERELVAAISFSGGSTYYADSVKGRFTISRDNAKNTVYLQMNSLNPEDTAVYYCNALYRYLYRSGDYWGHGTQVTVSS	low polyreactivity
QVQLVESGGGLVQAGGSLRLSCAASGSIFYVNTMVWYRQAPGKERELVAGITSRGGSTYYADSVKGRFTISRDNAKNSVYLQMNSLKPEDTAVYYCAKRAYGTALYRGYGYWGQGTQVTVSS	low polyreactivity
QVQLVESGGGLVQAGGSLRLSCAASGGTFGGNAMGWYRQAPGKERELVAAITDIGGSTYYADSVKGRFTISRDNAKNTVYLQMNSLKPEDTAVYYCAKDNVEVVGQWSSDEYDYWGQGTQVTVSS	low polyreactivity
QVQLVESGGGLDQAGGSLRLSCAASGSTFLTNAMGGYRQAPGKEMELVAVISLISGPTYYADSVKVRFTISRDNAKNTVYLQMNRLKPEDTAVYYSATDPYWNSPYVKYDYWGQGTQVTVSS	high polyreactivity
QVQLLETGGGLVQAGGSLRLSCAASGLIFYYNVMGWYIQAPGKERELVASISYSSTRTYYADSVKGRFTISRDNAKNTVYLQMNSLKPEDTAVYYCNAVIRNSWIRGYWGQGTQVTVSS	low polyreactivity
QVQLVESGGGLVQAGSSLRLSSAASGSIIGVNAKGRYRQAAGKERELVAAISSTGGSTYYADSVKGRYTISRDNAKNTVFLKMNSLKPDDTAVYYCNTDYSKSIGDGYSGFDYWGQGTQLTVSS	low polyreactivity
QVQLVESGGGLVQAGGSLRLSCAASGYIFFNYGMGWYRQAPGKERELVAASTTIDGTTYYADSVKGRFTISRDNAKHTVYLQMNSLKPEDTAVYYCNADLYWLWYGEFDYWGQGTQVTVSS	high polyreactivity
QVQLVESGGGLVQAGGSLRLSCAASGRIFDLYAMGWYRQAPGKERELVASITTIGGRTYYADSVKGRFTISRDNAKNTVYLQMNSLKPEDTAVYYCAKSRWLYTTRSGYDYWGQGTQVTVSS	high polyreactivity
QVQLVESGGGLVQAGGSLRLSCAASGSTFYQNAMGWYRQAPGKERELVAAISIGGGRTYYADSVKGRFTISRDNAKNTVYLQMNSLKPEDTAVYYCAAGPTGRYRREFRFDYLGQGTQVTVSS	low polyreactivity
QVQLVESGGGLVQAGGSLRLSCASSGFTFWTYDMGWYRQAPGKERELVAAIDSGGSTYYADSVKGRFTISRDNAKNTVYLQMNSLKPEDTAVYYCNAGPSVTSGYDYDYWGQGTQVTVSS	low polyreactivity
QDQLVETGGGLVQARGSLRLSCAASGITFDKYAMGWYRQAPGKERELVAAISGSDGSTYYADSVKGRFTISRDNAKNTVYLQMNSLKQEDTSVYYCAAESEYAGTFEYDYWGQGTQVSVSS	low polyreactivity
QVQLVESGGGLVQAGGSLRLSCAASGRIFSTYVMGCYRQAPGKERELVAAITRGGSTNYADSVKGRFTISRDNAKNTVYLQMNSLKPEDTAVYYCNAQRRGTYYLGQGTQVTVSS	high polyreactivity
QVQLVESGGGLVQAGGSLRLSCAASGRTFYYYAMGWYRQAPGKEREMVATISGGSSTNYADSVKWRFTISRDNAKNTVYLQMNSLKPEDTAVFYCAARWWRGGGYRPNYYKLKYDYWGQGTQVTVSS	high polyreactivity
QVQLVESGGGLVQAGGSLRLSCAASGFIFDDNSMGWYRQAPGTEREFVAAISQGAGSTYYADSVKGRFTISRDTAKNTVNLQMNSLKPEDTAVYYCNNGRPKYWYGYKYDYWGHGTQVTVSS	low polyreactivity
QVQLVESGGRLLQAGGSLRLSCAASGSTISHYAMGWYRQAPGKEWELVATITVTGVRTYYADSVKGRFTISRDNAKNTVYLELNSLKPEDTAVYYCAVRPSTRGAQAQPWMYYWGQGTQVTVSS	low polyreactivity
QVQLVESGGGLVQAGGRLRLSCAASGFTFLDYAMGWYRQAPGKERELVASISSSGGSTRFADSVKGRFTISRDNAKNTVYLQMNSLKPEDTAVYYCNADVDLFGAAYGYDYWGQGTQVTVSS	low polyreactivity
QDQLVESGGGLVQAGGSLRLSCAASGGTFIYNTMGWYRQAPGKERELVAAINSGGSTTYADSVKGRFTISRDNAKNTVYLQMNSLKPEDTAVYYCAAVYVYLGVYARYPIWGYYYWGQGTQVTVSS	low polyreactivity
QVQLVESGGGLVQAGGSLRLSCAASGSTISGYAMGWYRQAPGKERELVATISRGGSTNYADSVKGRFTISRDNAKNTVYLQMNSLKPEDTAVYNCAAQTYVWWVKYHSWGQGTQVTVSS	low polyreactivity
QVQLVESGGGLVQAGGSLRLSCAASGFTFIRYAMGWYRQAPGKERELVASISNRGGRTYYADSVKGRFTISRDNAKNTVYLQMNSLKPEDTAVYYCAAGYSTYRAVWTDNNYWGQGTQVTVSS	high polyreactivity
QVQLVETGGGLLQAGGSLRISSAASGRIFPSFSMGWYRQAPGKERELVAAITRGGASTYYADSVKGRFTISRDNAKNTVYLQMNSLKPEDTAVYYCAKDAYRYGGLSWTTGMDYWGQGTQVTVSS	high polyreactivity
QVQLVESGGGLVQAGGSLRLSCAASGRNFYLYGMGWYRQAPGKERELVAAIDWSDGSTYYADSVKGRFTISRDNAKNTVYLQMNSLKPEDTAVYYCAADGWAAWLYDYWGQGTQVTVSS	low polyreactivity
QVQLVESGGGLVQAGGSLRLSCAASGSTFRFYAMGWYRQAPGKERELVAAISKSGGITYYADSVKGRFTISRDNAKNTVYLQMNSLKPEDTAVYSCATVGLLSNFYARFNYWGQGTQVTVSS	high polyreactivity

Sequence	polyreactivity (PSR sort gate)
QVQLVESGGGLVQAGGSLRLSCAASGGIFRYNAMGWYRQAPGKERELVAAISYRGGSTYYADSVKGRFTISRDNAKNTVYLQMNSLKPEDTAVYYCAAVYYQDKRGDYWGQGTQVTVSS	high polyreactivity
QVQLVESGGGLVQAGGSLRLSCAASGSIFDYYTMGWYRQAPGKERELVASITQSGGSTYYADSVKGRFTISRDNAKNTVYLQMNSLKPEDTAVYYCAADFSIVKMDYWGQGTQVTVSS	low polyreactivity
QVQLVESGGVLVQAGGSLRLSCAASGSIFFYYAMGWYRQAPGKERELVAAITFTGGSTYYADSVKGRFTISRDNAKNTVYLQMKSLKPEDTAVYYCAADWYYGDEYEYWGQGTQVTVSS	high polyreactivity
QVQLVESGGGLVQAGGSLRLSCAASGLTFGSYTMGWYRQAPGRERDLVAAITSDGSTNYADSVKGRFTISRDNAKNTVYLQMNSLKPEDTAVYYCNKGETLYGSVPYDYWGQGTQVTVSS	high polyreactivity
QVQLVESGGGLVQAGGSLRLSCAASGRTFGNYAMGWYRQAPGKERELVADITRRGGSTSYADSVKGRFTISRDNAKNTVYLQMNSLKPEDTAVYYCNADSYLPAIRYDYWGQGTQVTVSS	low polyreactivity
QVQLVESGGGLVQAGGSLRISCAASGFIFGPNAMGWYRQAPGKERELVAAISYSGGRTYYADSVKGRFTISRDNAKNTVYLQMNILKPEDTAVYYCAQPGRYWGQGTQVTVSS	high polyreactivity
QVQLVESGGGLVQAGGSLRLSCAASGSTFGINDMGRYRQAPGKERELVASITRRGGTTYYADSVKGRFTISRDNAKNTVYLHMNSLKPEDTAVYYCNKTYRYGTPLYDYWGQGTQVTVSS	high polyreactivity
QVQLVESGGGLVQAGGSLRLSCAASGYTIWHYAMGWYRQAPGKEREFVATISSGGSTYYADSVKGRFTISRDNAKNTVYLQMNSLKPEDTAVYYCAVDIWGGEGYDSWGQGTQVTVSS	low polyreactivity
QVQLVESGGGLVQAGGSLRLSCAASGRIYYNAMGWYRQAPGKEGELVAAISGSGTRTYYADSVKGRFTISRDNAKTTVYLQMNSQKPEDTAVYYCARYYSHYSTYDYVRYGYWGQGTQVTVSS	high polyreactivity
QVQLVESGGGLVQAGGSLRLSCDASGLIFYSNAMGWYRQAPGKERELVAAISSSGGSTYYADCVKGRFTISRDNAKNTVYLQMNSLKPEDTAVYFCAAAGDDYWGQGTQVTVSS	low polyreactivity
QVHLVESGGGLVQAGGSLRLSCAASGSIFFGNAMGWYRQAPGKERQLVAAISTTGGSTYYADSVKGRFTISRDNAKNTVYLQMNSLKPEDTAVFFCNSDRATWWEQWWYDYWGQGTQVTVSS	low polyreactivity
QVHLVESGAGLVQAGGILRLSCAASGRIFAHYALGWYRQAPGKERELVAAISRGGSTKYADSVKGRFTISRDHAKNTVYFQMNSLKPEDTAVYYCARQLWGSPYGAYYAGDYWGQGTQVTVSS	low polyreactivity
QVQLVESGGGLVQAGGSLRLSCAASGITSSIYAMGWDRQAPGKERELVAVSTTSGGSTYYADSVKGRYTISRDNAKNTVYLQMNSLKPEDTAVYYCAADSYFYLDLLEDYWGQGTKVTVSS	low polyreactivity
QVQLVESGGGLVQAGGSLRLRCAATGSIFTKYAMGWYRQAPGKERELVAAISWSGSRTRYADSVKGRFTISRDNAKNTVYLQMNSLKPEDTAVYYCAAEIAASYRPEYDYWGQGTQVTVSS	high polyreactivity
QVQLVESGAGLVQAGGSLRLSCAASGSTFSHNAMGWYRQEPGKESELVAAISWSGGGTYADSVKGRFTISRDNAKNTVYLQMNSLIPEDTAVYYCNKVSYPSTSSSWFDYWGKGTQVTVSS	low polyreactivity
QVQLVESGGGLVQAGGSLRLSCAASGLTFSAYTMGWYRQAPGKERELVAAIDRSGSTYYADSVKGRFTISRDNAKNTVYLQMNSLKPEDTAVYYCAADAVRKDLFDYWGQGTQVTVSS	low polyreactivity
QVQLVESGGGLVQAGGSLRLSCAASGRTLASNAMGWYRQAPGKERELVAAINRGGSTYYADSVKGRFTISRDNAKNTVYLQMNSLKPEDTAVYYCRFYSYWSWLGREYDYWGQGTQVTVSS	low polyreactivity
EVQLVESGGGLVQPGGSLRLSCAASGYIYRRYRMGRYRQAPGKGREFVAAISGGSSTNYADSVKGRFTNSRDNSKNTVYLQMNSLRAEDTAVYYCAAYKIDSDPRVYWGQGTQVTVSS	low polyreactivity
QVQLEESGGGLVQAGGSLRLSCAASGTTFGINCYGMYRQAPGKERELVAGISVSGGSTYYADSVNGRFTISRDNAYNTVYLQMNSLKPEDTAVYYCAAKWFNRDFDYWGQGTQVTVSS	low polyreactivity
QEQLQESGGCLVQAGCSLRLSCAPSGTISDSGLMGWYRQPQGKERELVAGISSGGITNYADSVKGRLTISRDNAKNTVYLQMNSLKPEDTAVYYCAADSPVSVTADDGYWGQGTQVTVSS	low polyreactivity
QVQLVESVGGLVQAGGSLRLSCAASGRTFSVYTMGWYRQAPGKERELVASINWSGGRTYYADSVKGRFTISRDNAKNTVYLQMNSLKPEDTAVYYCAATGWRTLYDYWGQGTLVTVSS	high polyreactivity

— the nanobody polyreactivity screen of Harvey et al. (2022)
